The values below are quoted from earlier work in paper PMC2928749.

This data set addresses hHR23B Ubl (Homo sapiens) (UniProt P54727).

Sequence of hHR23B Ubl (Homo sapiens) (P54727 1-79): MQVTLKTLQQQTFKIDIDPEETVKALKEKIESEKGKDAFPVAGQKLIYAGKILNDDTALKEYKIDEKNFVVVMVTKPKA
Sequence of Ataxin-3 Josephin (P54252 1-183): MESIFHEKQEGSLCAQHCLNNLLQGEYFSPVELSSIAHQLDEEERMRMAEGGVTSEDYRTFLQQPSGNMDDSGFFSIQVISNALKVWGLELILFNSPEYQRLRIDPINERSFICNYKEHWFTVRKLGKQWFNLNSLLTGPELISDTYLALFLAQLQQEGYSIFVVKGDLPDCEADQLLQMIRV

As usually defined, the Kd is the free concentration of one partner at which half of the binding sites on the other are occupied at equilibrium, for simple one-to-one binding. Ataxin-3 Josephin (from UniProt P54252): the Kd is 12 µM.
